From the supplement of paper PMC12636428

Test system: Saccharomyces cerevisiae
Test: transcriptional activation domain activity (GFP:mCherry ratio, weighted mean of sorted bins, harmonized to initial dataset scale) (arbitrary fluorescence ratio units); higher = stronger transcriptional activation
Conditions: beta-estradiol 1 µM; induction time 4 h
How it was run: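 Barcoded tiles were sequenced after cells were sorted into 8 bins by GFP:mCherry ratio. Before sorting, cultures had been diluted 1:5 into SC with 1 uM beta-estradiol and held for 4 hours at 30 °C. The tiles were fused to an estradiol-inducible synthetic transcription factor and integrated at URA3 in yeast diploids carrying a GFP reporter. Activation activity is the read-weighted mean of bin median fluorescence, averaged over barcodes and linearly mapped onto the initial dataset scale, and tiles under 50 reads were left out.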

| Sequence | transcriptional activation domain activity |
| --- | --- |
| MELYGTHGVFYYYFFVIGFFLDYHSFLSPLLSLLMRIEKDVSGIFFFVFLFFC | 63700 |
| MSSLPLFPVLSSSLCFPLPPSLPLSSPPSVSPFPPFSLFPPLPLFSPFPPSIS | 38900 |
| MMGLSLGFKCCFQMLSLFSILFSFHLVLRLLSFPFFSCSYCILYRFLFFCWGW | 24500 |
| DANASSSSTSSTQANNYIDFHWNNIKPELRDLICQSYKDFLINELGPDQIDLP | 51100 |
| SLSRIVGRGGAQINQIKEDTEVESLDVNQEGEGDSATVTLKGTKTAVAAAKKA | 21900 |
| KLLRWYIYPCAYRLGTVCCLFLSEIYNERHRKLSYAVMEPDTWPIMFTDKLAR | 74900 |
| GISHNQLSNDDVLLNPSDTGFSPTDNGDGDDGEPHSTLRMAWLLTRVLEHAPL | 46600 |
| FYSRVASSTLLFFWLTSLISNGIIIRTNYLLDQHHSRLLLFALLVVQELLCVL | 68600 |
| NSTVHNLIELIPLQQLCGFCCFSMRFVVFLDLLSTVVQPVIVGYIVYLIVILT | 60200 |
| MRAVDIPSLAFNAVGVSNHGIQQMPVAEFATVMKSLVTILLKSMPLDKEKRYQ | 38900 |
| MLFLFFFIHILHPFFFFFNPFFLFLSFFFISFCTSVCLCMRKQLTRIIFLNYI | 50500 |
| MGGKASWCVFSFCLLFPLYFLLSLPPSFFIFHFYCVLALLPLPLPFPFFPSIC | 58700 |
| PNYEQHPAPAPAPAPGNKPEEHHEEKPEEHHEEKPSYEQHPAPAPAYQANAPH | 19400 |
| PSLLVLAAHTLAKHGVLAPMSTLITRFLELPFQIKRPQLYYNLLLHAISRFPS | 70100 |
| MRRFSLFFSLSSLCLWLYVCWIGWIDGFLLVDVMVHLQHVYCVLTILIFLFSL | 22300 |
| KKRGKRTTNGKESGRSSKKARAGSQPKPRTNARTANAAAEDDDDDDEEDDHEG | 46700 |
| HSITNFELVEDAPHQVGFSTPQMTAKQLMESVSELDLPPLTLDEPPQAIKFNL | 75900 |
| MESAKKAVESVAEGIKKVAISGDQKPAAGGKKEGGKKEKKAAKAGAEVSSGPL | 34300 |
| VYCELVSFLVLSSKKSDTKLLIQLERVARYISQLLFVESDAITMTSGISVLRP | 37500 |
| TNSEEDALDAWDLCATKMSLALVQLVQMFEEKELLSSLNVLLRLVTRISTAIP | 45700 |
| RKGEGEGSEPPHPAEPRRLRRSHEACARCRSKKIKCDSKHPRCTACATAGTPC | 23800 |

| Sequence | transcriptional activation domain activity |
| --- | --- |
| LLCILLLVYFIYVALFLVSINTGVTLSGLNIQMSSKYSVYYLLIYHVFGFFWL | 58900 |
| FALMLREPAIQDVMSLLITTMSKFMDWFDFLDLIVTYPEFPDPKWLTTLFLIL | 23900 |
| SRLCLVSVGECLLLLSLVWGLLLLISLYLVLFFLHCVCMSGLFLCDLFELFVT | 64800 |
| MVFGVFFVYVYLSSWVFVLWFFSLSLSHGLAYLSFFPFSFLSFFPSLSLFPPC | 62900 |
| RREERRGEDGHRHRRTRRYSEDEDEEGERRSRGKERGGEERREKRREERRDAG | 16800 |
| WLLTFFTVDFLPNRDLRILLANWLNTLIHDPILKKHTDGLGIVRRLVKVAKEC | 48400 |
| RDDDAEEDKEEVPKKKNRKGQEVGGEAGKRVEEEEEEEAPKRKKKKAKAAAAD | 13400 |
| MFLLLKYDFSLTDLLRILLRLNMFPILLSFIMDRPYTSYTLPWLISFWYLVFF | 66500 |
| DGAGAKDDEEDAGRMRTRGNGKRKGKGRAQDEAEAEAERVRAAEAFARRGAAK | 43300 |
| MIITLSRLFFFFFFFPVRFLAFLNHFFLFFFFFWLRWGLSVCFFILSWPGEKS | 46400 |
| YLAYCWQPDISWCPNLTLLNHWYNLTPYWFILMFIWNNLSCILMMINMIQLYF | 67800 |
| MDDDIAMFDSLATTQPIDIAASNQQNGEIAQLWDFNVDQFNMTPSNSSGSATI | 76100 |
| LLTEHFLLRVFAVFTAYIVELWMLKVAYLGYYFQLRQYLSEKSRMIYIGTCVY | 63300 |
| ADPNGAAAATTAAAPEKKAEEPVTPAKSSAAPASTSSTPASTNTTEKKKKNRL | 34700 |
| MIPLQVLSLIDAKNLILLLTKFFSCVALSSCLYWDSCYNLIHGYLVLYKIIYT | 59400 |
| FLLCTFFAIFAFLLCYLLAFFSFHVFLYDDSLFLFYYCMSAACTFFCCMFLEF | 39600 |
| QLNLVNHFYQFSLRFFLDIFDYILHHNPNLKGVTDYSRRRAILLNDLFLVVYQ | 55500 |
| KNGWHIIGSSNNVVAYRLRVYQCMDLTTFFSLQAAFSDCERYFVASAIVLDKK | 38500 |
| KKKSSRKRDEEDKERSLRKHSRHHKSRRKRSRERSESPESSRHRHRHKKSSSS | 17600 |
| GVEKTAEKPSEEPAEEAPEKKAEPTTEEPEPEAAKPKARGGRPKKVIAAPKED | 38300 |
| QAATGVGILLLLHDFKRVSIVILAQDGCDDEGWPNQLVAFAALLRSRLLKGGE | 22100 |

| Sequence | transcriptional activation domain activity |
| --- | --- |
| MRTLKLCSSCKHLGPEIYAFGWVCTNLSCQILFRHSGFHSLKGVTYSTSFLAQ | 57400 |
| LLLRSFKTFQLWTGDQCLEYLGDKFRVVLGLPDDWTNKDLGYWLLSKLVLVHL | 73000 |
| GSSQNTDQPHKSRKKRQREQDEDDTSTNKRSHRKSKKHKSSRKHKSSRKTAKT | 25100 |
| MLMFLRCGLGLRFGVLVCGCRSTFVCWSLQRAFANMLRARSLPWIFLAWVILL | 76000 |
| HALRTFVYKAAIIPISLFLVHFRRAFSCLCFCALSGFPRCHLTLLSIMFIFSL | 53700 |
| TSAFGNLGSSSSTPSVFGGAGAGTNNTGSGGGGGGGFSAFAGKPTAFGAGAAG | 39400 |
| GAAPPPPPPPPARGGGAAPPPPPPPPPARGGAVPPPPPPPPPSGGGPPPPPPP | 33000 |
| PLYAYTIWSWLCQGVYFTLLTLLSFDQFQSLGEICFIFFELSFGNAMMVTLVS | 80300 |
| KPLSKRAAPKKAPAKRKSSAGSKSKETSAEPPKKRPAKAKAKPKKEATPASSP | 41900 |
| ADEYIFHLTHGTLCICEHQGEENVVVVNVKSIISVVAMVPFPFIVRGCNNQYF | 32600 |
| TYINYLITSNAGLTATIVHMLLWNYAEVSLGWSWITIANMKKLLRPETYKFWQ | 33300 |
| KYEEQEDKDEEEEEKEEEEEEEEEEEEEEEGKRGEGKKATAKRRSKGSAYGGK | 17300 |
| MVFFFFGRRGGCLVGFVVLLSFPLSFFLSFKLCLLLPLYYYSICVFFFSCVFF | 55600 |
| GGADTKQGAKIACLECRTAKIKCSAPTDGVVPCRRCVRHGRECIFEKHRRGRK | 42200 |
| LYSVCSILLLVVRLFKQLPRQYCSWRVVYTQKLWISITICFTLMRFSFSRDHT | 51100 |
| MFYNFFFFIIIYLCFFARMFLVVSRIVMLLAFLYSCLIPLLCGLVFFCIRFKS | 67300 |
| WIKWTFLFARYFPLLAGLCGRVIDSIVLYRNPIPIPLNALRIWYICQVLILHL | 78200 |
| SDEEEAEVIPAKKARGKKAPVKQEEIQSDEEVLTAKKPAKQARGKKAPAAAVK | 30600 |
| PAPKKAAAPAKKDALKAKKEESSSSSSDSEDEKPAPKKAAASAAKKVVAKAQK | 21000 |
| VPLPELEPKVVLELRAVVVQVKQLDEEPPLDLEQRVELVPTGQLEQRAAPVLR | 35000 |
| IDSEAEDASRNGKIPKGKKSKKNHCESETEEVIEKQPASTTQKSSKKKHCMRK | 19600 |

| Sequence | transcriptional activation domain activity |
| --- | --- |
| MPPVAKQKRSAADRAKGASRAKSGCYTCRIRRKKCDEERDEHDHCRTCTRLRL | 23700 |
| PASRGYDRDRDYRRSPSPRERRERDRSRDRDYDRPRSPAVRATLSSSPAPAAL | 22600 |
| MLILLYLSLLPILYFCTDGLIKDTLLYLHACGLIVWWHCPSSTGDMYGLRHFW | 55800 |
| MADAVAEGTAKLQLDEETGEMVSKGELKKRLQKRAKKAAQAKAKADAPAPSAA | < 6570 |
| SIILLCLPAAYFLFNIFSVGLLSLGFSHRLIPGIPRLRRYIFVPGVFLYIFAR | 54300 |
| MTTDNTQKPTISLVEKVDLVFRLLAIAPLRHAIHFTRSLFIAYWRGLPLRLHI | 70300 |
| YLAGPRVPFAPLSLPGIFLPTTWWNPGVFYFWTWRNHFYKTWGETVGFAPWFS | 80500 |
| ICFSPPLISCGGFFPSDLLPFLFHSFSFYFLTCWLPVYFLPPLFVACFFICLP | 60100 |
| DQVMKIKPVQKQTTAGQRTRFKAVVVVGDSNGHVGLGVKTAKEVATAIRAAII | 72700 |
| EAEDGAEKPKRGRKRKEPPAEAEANGDEPAPAAEEEEAPPAKKTKPSSSPLAK | 27800 |
| ARYVVQYKNSLIGKHFKMLQQLGIFHLHDLCSPLLFDLWKATGELGALLWFPE | 66700 |
| PFSHFVRMLLIYLPSLRLIVYYAFSFTLIMPFVLGYSVFMPSNWDTATFFFSY | 61900 |
| HVFPILLRLVGGYALLRKLIDSIEEAYLAYHMVASQTYFMSTSLTFCAILARM | 71200 |
| PLYPTTRCIFFFYRFLLYVVHLNMSLLMHSFFFVLLQACRGWMSLFLLLSLLF | 47900 |
| AAQRSVMLGHNLVTLEDILMTQRKWRAVLHETFYVRWIAVLRRWLCRLLDWPV | 42900 |
| KQTRAGQRTRFRAVVIVGDSNGHVGLGVKTSKEVATAIRAAIVIAKLNVIPVR | 64200 |
| NNSINATPIVDNSSGSQLPNGFDRGQANNTPFPGYFGGLDLFDYDFLFGNDFA | 133000 |
| SLDALHIIFVAHSLYWYLVLNYITPLALLSIVWSFHLQIAINIMLIASVQTAY | 37300 |
| KQYCVRPNSGRIEPGKEVEVTVLLQAMKQEPPIDAKCRDKFLVQSVAVTADKE | 51300 |
| TSIFGSNNNNTGSGMFGGNNNTNTGTPFGGGGGFGTNTNTNTAFGSKPFGSST | 17500 |
